Test results as given in PMC7817140.

T1: Mas receptor fused to Rluc (MasR-Rluc) (human), P04201
T1 chain: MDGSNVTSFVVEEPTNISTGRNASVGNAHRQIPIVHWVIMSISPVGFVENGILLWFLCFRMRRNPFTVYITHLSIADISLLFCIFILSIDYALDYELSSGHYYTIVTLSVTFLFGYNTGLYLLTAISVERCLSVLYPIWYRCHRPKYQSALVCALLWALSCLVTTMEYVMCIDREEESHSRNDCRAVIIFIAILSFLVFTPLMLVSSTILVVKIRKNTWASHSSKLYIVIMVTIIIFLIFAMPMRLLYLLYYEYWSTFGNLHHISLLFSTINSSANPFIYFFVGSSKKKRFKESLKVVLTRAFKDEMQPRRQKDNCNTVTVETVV


What was measured:
[1] = biological target: Mas receptor, endogenous in mouse striatal cells (mouse (endogenous in primary striatal neurons and microglia)) (UniProt P30554); assay: proximity ligation
[2] = biological target: T1, Mas receptor fused to Rluc (MasR-Rluc) …; assay: FRET or BRET; conditions: remark: other sources report otherwise

Chain of UniProt P30554 (P30554 whole entry, the tested form may be a part): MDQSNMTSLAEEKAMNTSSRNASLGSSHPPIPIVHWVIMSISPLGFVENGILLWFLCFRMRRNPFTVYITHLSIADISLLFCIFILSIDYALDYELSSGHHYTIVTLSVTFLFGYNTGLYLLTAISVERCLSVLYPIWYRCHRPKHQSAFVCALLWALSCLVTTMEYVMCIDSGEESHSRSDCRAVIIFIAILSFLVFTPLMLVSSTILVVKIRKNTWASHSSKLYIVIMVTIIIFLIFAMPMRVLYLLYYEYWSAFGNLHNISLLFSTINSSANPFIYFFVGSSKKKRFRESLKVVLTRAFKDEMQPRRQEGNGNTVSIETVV

| BRET50 [2] [mBU] | Molecule | PLA red dots/cell (striatal neurons) (red dots/cell) [1] |
| --- | --- | --- |
|  | Angiotensin AT1 receptor, endogenous in mouse striatal cells (from UniProt P29754 1-359) | 1.44 |
| 13 | Angiotensin AT1 receptor fused to YFP (AT1R-YFP), P30556 1-359 (receptor) MILNSSTEDGIKRIQDDCPKAGRHNYIFVMIPTLYSIIFVVGIFGNSLVVIVIYFYMKLKTVASVFLLNLALADLCFLLTLPLWAVYTAMEYRWPFGNYLCKIASASVSFNLYASVFLLTCLSIDRYLAIVHPMKSRLRRTMLVAKVTCIIIWLLAGLASLPAIIHRNVFFIENTNITVCAFHYESQNSTLPIGLGLTKNILGFLFPFLIILTSYTLIWKALKKAYEIQKNKPRNDDIFKIIMAIVLFFFFSWIPHQIFTFLDVLIQLGIIRDCRIADIVDTAMPITICIAYFNNCLNPLFYGFLGKKFKRYFLQLLKYIPPKAKSHSNLSTKMSTLSYRPSDNVSSSTKKPAPCFEVE |  |
